Target: human cyclophilin A (human) (UniProt P62937)
Assay: SPR

Chain of human cyclophilin A (human) (P62937 whole entry): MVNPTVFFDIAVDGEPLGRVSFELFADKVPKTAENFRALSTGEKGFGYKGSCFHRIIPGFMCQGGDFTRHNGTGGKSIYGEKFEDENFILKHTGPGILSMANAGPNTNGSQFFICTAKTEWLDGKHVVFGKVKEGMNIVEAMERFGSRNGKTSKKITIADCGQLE

Row | Substance | Kd [nM]
1 | SARS-CoV-2 RBD, Deltacron variant (AY.4/BA.1) (from UniProt P0DTC2) (domain or fragment) | 18.6
2 | SARS-CoV-2 RBD, Omicron variant (BA.1, B.1.1.529) (from UniProt P0DTC2) (domain or fragment) | 26.4
